Assay results: patent publication US20080038748

T1: human recombinant LAP β1 (R&D), not treated with protease
T1 chain: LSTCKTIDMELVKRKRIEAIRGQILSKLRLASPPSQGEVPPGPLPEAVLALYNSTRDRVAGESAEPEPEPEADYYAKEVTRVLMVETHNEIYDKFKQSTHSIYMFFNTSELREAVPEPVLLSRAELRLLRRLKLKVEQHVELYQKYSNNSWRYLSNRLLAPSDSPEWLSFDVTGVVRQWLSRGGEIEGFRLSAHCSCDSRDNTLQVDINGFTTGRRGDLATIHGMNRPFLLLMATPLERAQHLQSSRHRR


Molecular target: T1, human recombinant LAP β1 (R&D), not …

| Protein | limited degradation on longer incubation; cleavage sites by N-terminal sequencing | limited degradation; cleavage site by N-terminal sequencing of the fragments | degradation of LAP β1 (SDS-PAGE, silver staining) |
| --- | --- | --- | --- |
| human blood-derived plasmin (PLN) (Sigma) (protein) KVYLSECKTGNGKNYRGTMSKTKNGITCQKWSSTSPHRPRFSPATHPSEGLEENYCRNPDNDPQGPWCYTTDPEKRYDYCDILECEEECMHCSGENYDGKISKTMSGLECQAWDSQSPHAHGYIPSKFPNKNLKKNYCRNPDRELRPWCFTTDPNKRWELCDIPRCTTPPPSSGPTYQCLKGTGENYRGNVAVTVSGHTCQHWSAQTPHTHNRTPENFPCKNLDENYCRNPDGKRAPWCHTTNSQVRWEYCKIPSCDSSPVSTEQLAPTAPPELTPVVQDCYHGDGQSYRGTSSTTTTGKKCQSWSSMTPHRHQKTPENYPNAGLTMNYCRNPDADKGPWCFTTDPSVRWEYCNLKKCSGTEASVVAPPPVVLLPDVETPSEEDCMFGNGKGYRGKRATTVTGTPCQDWAAQEPHRHSIFTPETNPRAGLEKNYCRNPDGDVGGPWCYTTNPRKLYDYCDVPQCAAPSFDCGKPQVEPKKCPGRVVGGCVAHPHSWPWQVSLRTRFGMHFCGGTLISPEWVLTAAHCLEKSPRPSSYKVILGAHQEVNLEPHVQEIEVSRLFLEPTRKDIALLKLSSPAVITDKVIPACLPSPNYVVADRTECFITGWGETQGTFGAGLLKEAQLPVIENKVCNRYEFLNGRVQSTELCAGHLAGGTDSCQGDSGGPLVCFEKDKYILQGVTSWGLGCARPNKPGVYVRVSRFVTWIEGVMRNN | plasmin successively cleaved between 85 Arg and 86 Asp, and between 106 Lys and 107 Glu | plasmin specifically cleaves between 56 Lys and 57 Leu of latent TGF-β | – |
| human matrix metalloprotease 2 (MMP2) (Alexis), APMA-activated (protein) YNFFPRKPKWDKNQITYRIIGYTPDLDPETVDDAFARAFQVWSDVTPLRFSRIHDGEADIMINFGRWEHGDGYPFDGKDGLLAHAFAPGTGVGGDSHFDDDELWTLGEGQVVRVKYGNADGEYCKFPFLFNGKEYNSCTDTGRSDGFLWCSTTYNFEKDGKYGFCPHEALFTMGGNAEGQPCKFPFRFQGTSYDSCTTEGRTDGYRWCGTTEDYDRDKKYGFCPETAMSTVGGNSEGAPCVFPFTFLGNKYESCTSAGRSDGKMWCATTANYDDDRKWGFCPDQGYSLFLVAAHEFGHAMGLEHSQDPGALMAPIYTYTKNFRLSQDDIKGIQELYGASPDIDLGTGPTPTLGPVTPEICKQDIVFDGIAQIRGEIFFFKDRFIWRTVTPRDKPMGPLLVATFWPELPEKIDAVYEAPQEEKAVFFAGNEYWIYSASTLERGYPKPLTSLGLPPDVQRVDAAFNWSKNKKTYIFAGDKFWRYNEVKKKMDPGFPKLIADAWNAIPDNLDAVVDLQGGGHSYFFKGAYYLKLENQSLKSVKFGSIKSDWLGC | – | – | degradation of LAP could not be confirmed |
| human matrix metalloprotease 9 (MMP9) (Alexis), APMA-activated (protein) MRTPRCGVPDLGRFQTFEGDLKWHHHNITYWIQNYSEDLPRAVIDDAFARAFALWSAVTPLTFTRVYSRDADIVIQFGVAEHGDGYPFDGKDGLLAHAFPPGPGIQGDAHFDDDELWSLGKGVVVPTRFGNADGAACHFPFIFEGRSYSACTTDGRSDGLPWCSTTANYDTDDRFGFCPSERLYTQDGNADGKPCQFPFIFQGQSYSACTTDGRSDGYRWCATTANYDRDKLFGFCPTRADSTVMGGNSAGELCVFPFTFLGKEYSTCTSEGRGDGRLWCATTSNFDSDKKWGFCPDQGYSLFLVAAHEFGHALGLDHSSVPEALMYPMYRFTEGPPLHKDDVNGIRHLYGPRPEPEPRPPTTTTPQPTAPPTVCPTGPPTVHPSERPTAGPTGPPSAGPTGPPTAGPSTATTVPLSPVDDACNVNIFDAIAEIGNQLYLFKDGKYWRFSEGRGSRPQGPFLIADKWPALPRKLDSVFEERLSKKLFFFSGRQVWVYTGASVLGPRRLDKLGLGADVAQVTGALRSGRGKMLLFSGRRLWRFDVKAQMVDPRSASEVDRMFPGVPLDTHDVFQYREKAYFCQDRFYWRVSSRSELNQVDQVGYVTYDILQCPED | – | – | degradation of LAP could not be confirmed |
